Results on eight molecules are retold here after patent US20240309110A1 (DANMARKS TEKNISKE UNIVERSITET, published 2024).

No end group written: not given here.

The target of experiment [1] is T1, MUC1 peptide no 1 (bisTn-MUC1): Btn-Ahx-SAPDTRPAPGS*T*APPAHGVTSAPD-OH (N-terminal Btn-Ahx (biotin-aminohexyl); GalNAc (Tn) on the Ser and the Thr marked * in GS*T*AP).
T1 construct: Synthetic MUC1 glycopeptide; also called peptide 1; target peptide 1
T1 peptide: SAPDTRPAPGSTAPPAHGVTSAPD
Put plainly: glycopeptide microarray.

The target in experiment [2] is T2, MUC1 peptide no 11 (bisSTnMUC1): GSTAP (not fully specified (residue 2)).
T2 construct: also called glycopeptide 11
T2 peptide: GST(Neu5Ac(a2-6)GalNAc)AP
The experiment is described as follows: glycopeptide microarray, signal as heat map.

Experiment [3] has as its target T3, MUC1 peptide no 12 (monoSTnMUC1): GSTAP.
T3 construct: also called glycopeptide 12
T3 peptide: GST(Neu5Ac(a2-6)GalNAc)AP
Put plainly: glycopeptide microarray, signal as heat map.

In experiment [4] the target is T1, MUC1 peptide no 1 (bisTn-MUC1): …. The experiment is described as follows: glycopeptide microarray, bar chart with single points [panel C4].
The target is the same in experiment [5]. The experiment is described as follows: glycopeptide microarray, bar chart with single points [panel D3].
The target of experiment [6] is T4, MUC1 20-mer glycopeptide no. 24 of Table 5 (VTSAPDTRPAPGSAAPPAHG, Thr to Ala) (GalNAc sites are shown in bold and underlined in Table 5; the marks are lost in the text).
T4 peptide: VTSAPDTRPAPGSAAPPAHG
The experiment is described as follows: glycopeptide microarray.

Another experiment deals with T5, AHGVTSAPDTR (T13 and S14 carry GalNAc (Tn), bold and underlined on the sheet).
T5 construct: also called MUC1 20-mer glycopeptide no
T5 peptide: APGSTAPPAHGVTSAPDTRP
Put plainly: glycopeptide microarray (20-mer MUC1 Tn-glycopeptides printed on a chip), RFU as heat map.

A further experiment concerns the target T6, PAPGSTAAPAH (S13 and T14 carry GalNAc (Tn), bold and underlined on the sheet).
T6 construct: also called MUC1 20-mer glycopeptide no
T6 peptide: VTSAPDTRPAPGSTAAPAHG
The experiment is described as above.

Experiment [7] has as its target T1, MUC1 peptide no 1 (bisTn-MUC1): …. Put plainly: glycopeptide microarray, bar chart with single points [panel C7].
Experiment [8] concerns the target MUC1 20-mer glycopeptide no. 29 of Table 5 (…, no Ala substitution) (GalNAc sites are shown in bold and underlined in Table 5; the marks are lost in the text). Put plainly: glycopeptide microarray (20-mer MUC1 Tn-glycopeptides printed on a chip), RFU as heat map.

MUC1 20-mer glycopeptide no. 29 of Table 5 (…, no Ala substitution) (GalNAc sites are shown in bold and underlined in Table 5; the marks are lost in the text), sequence (peptide, as listed by the source): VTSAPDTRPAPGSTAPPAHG

B1: scFv G2D11 mutant M1 (LAL) (scFv)
scFv: DVVMTQSHKFMSTSVGDRVSITCKASQDVGTAVAWYQQKPGQSPKLLIYWASTRHTGVPDRFTGSGSGTDFTLTISNVQSEDLADYFCQQYSSYPLTFGGGTKLEMKRGGGGSGGGGSGGGGSGGGGSQVQMQQSDAELVKPGASVKISCKASGYIFADHAIHWVKRKPEQGLEWIGYISPGNDDIKYNEKFKGKATLTADKSSSTAYMQLNSLTSEDSAVYFCKRSLLALDYWGQGTTLTVSS
notes: Mutant of scFv G2D11 with the mutations in the VH domain; '-' stands for the deletion of G102; also called LAL mutant M1
For the molecule B1, the binding result in experiment [1], in [2] and in experiment [3] was “no binding” each time.

B2: scFv G2D11 mutant M2 (LAL-TFT) (scFv)
scFv: DVVMTQSHKFMSTSVGDRVSITCKASQDVGTAVAWYQQKPGQSPKLLIYWASTRHTGVPDRFTGSGSGTDFTLTISNVQSEDLADYFCQQYSSYPLTFGGGTKLEMKRGGGGSGGGGSGGGGSGGGGSQVQMQQSDAELVKPGASVKISCKASGYTFTDHAIHWVKRKPEQGLEWIGYISPGNDDIKYNEKFKGKATLTADKSSSTAYMQLNSLTSEDSAVYFCKRSLLALDYWGQGTTLTVSS
notes: also called LAL+TFT mutant M2
As for B2, the binding result in [1] is “no binding”.

B3: scFv C4-STnMUC1 (scFv)
scFv: IVMTQSPSSLAVSAGEKVTMSCKSSQSLLNSRTRKNYLAWYQQKPGQSPKLLIYWASTRHTGVPDRFTGSGSGTDFTLTISNVQSEDLAEYFCQQYNSYPYTFGGGTKLEIKRGGGSGGGSGGGSGGGSGGGSQVQMQQSDAELVKPGASVKISCKASGYTFTDHAIHWVKRKPEQGLEWIGYISPGNDDIKYNEKFKGKATLTADKSSSTAYMQLNSLTSEDSAVYFCKRSLLALDYWGQGTTLTVSS
notes: From the STn-template library
As for B3, the binding result in experiment [4] is reported as “no binding”.

B4: scFv D3-STnMUC1 (scFv)
scFv: IVMTQSPSSLAVSAGEKVTMSCKSSQSLLNSRTRKNYLAWYQQKPGQSPKLLIYWASTRHTGVPDRFTGSGSGTDFTLTISNVQSEDLAEYFCQQYNSYPYTFGGGTKLEIKRGGGSGGGSGGGSGGGSGGGSQVQMQQSDAELVKPGASVKISCKASGYTFTDHAIHWVKRKPEQGLEWIGYISPGNDDIKYNEKFKGKATLTADKSSSTAYMQLNSLTSEDSAVYFCKRSLLALDYWGQGTTLTVSS
notes: From the STn-template library
Turning to B4, the binding result in experiment [5] is “no binding”.

B5: scFv 5E5 (scFv, V domains shown)
VH: QSDAELVKPGSSVKISCKASGYTFTDHAIHWVKQKPEQGLEWIGHFSPGNTDIKYNDKFKGKATLTVDRSSSTAYMQLNSLTSEDSAVYFCKTSTFFFDYWGQGTTLTVSS
VL: ELVMTQSPSSLTVTAGEKVTMICKSSQSLLNSGDQKNYLTWYQQKPGQPPKLLIFWASTRESGVPDRFTGSGSGDFTLTISSVQAEDLAVYYCQNDYSYPLTFGAGTKLELK
notes: Single chain Fv in the microarray; also called svFV 5E5
B5: the binding result (in [6]; with AHGVTSAPDTR; with PAPGSTAAPAH) was “no binding” throughout.

B6: scFv C7-STnMUC1 (scFv)
scFv: VVVTQTPLSLPVSLGDQASISCRSSQSLVHSNGNTYLHWYLQKPGQSPKLLIYKVSNRFSGVPDRFSGSGSGTDFTLKISRVEAEDLGVYFCSQSTHVPRTFGGGTKLEIKRGGGSGGGSGGGSGGGSGGGSQVQMQQSDAELVKPGASVKISCKASGYTFTDHAIHWVKRKPEQGLEWIGYISPGNDDIKYNEKFKGKATLTADKSSSTAYMQLNSLTSEDSAVYFCKRSLLALDYWGQGTTLTVSS
notes: From the STn-template library
For B6, the binding result in experiment [7] was “no binding”.

B7: scFv 2D9Chi (scFv, V domains shown)
VH: not shown
VL: DIVMSQSPSSLAVSVGEKVTMSCKSSQSLLYSSDQKNYLAWYQQKPGQSPKLLIYWASTRESGVPDRFTGSGSGTDFTLTISSVKAEDLAVYYCQQCYSYPFTFGSGTKLERKR
notes: 2D9Chi comprises the 2D9 VL domain and G2D11 VH domain
Take B7: the binding result in experiment [8] is listed as “no binding”.

B8: scFv G2D11 mutant M4 (TFT-G) (scFv)
scFv: DVVMTQSHKFMSTSVGDRVSITCKASQDVGTAVAWYQQKPGQSPKLLIYWASTRHTGVPDRFTGSGSGTDFTLTISNVQSEDLADYFCQQYSSYPLTFGGGTKLEMKRGGGGSGGGGSGGGGSGGGGSQVQMQQSDAELVKPGASVKISCKASGYTFTDHAIHWVKRKPEQGLEWIGYISPGNGDIKYNEKFKGKATLTADKSSSTAYMQLNSLTSEDSAVYFCKRSLPGTFDYWGQGTTLTVSS
notes: The only mutant without LAL; also called TFT mutation only
B8: the binding result in experiment [3] was “no binding”.
